Test results as given in PMC3855908 (Traffic (Copenhagen, Denmark), 2013).
Each block holds one binder with its values, some of them ahead of it.

Key:
[1] = target: T1, Pan1 (recombinantly purified, unpublished data) (yeast, UniProt P32521 1-1480)
T1 sequence (looked up): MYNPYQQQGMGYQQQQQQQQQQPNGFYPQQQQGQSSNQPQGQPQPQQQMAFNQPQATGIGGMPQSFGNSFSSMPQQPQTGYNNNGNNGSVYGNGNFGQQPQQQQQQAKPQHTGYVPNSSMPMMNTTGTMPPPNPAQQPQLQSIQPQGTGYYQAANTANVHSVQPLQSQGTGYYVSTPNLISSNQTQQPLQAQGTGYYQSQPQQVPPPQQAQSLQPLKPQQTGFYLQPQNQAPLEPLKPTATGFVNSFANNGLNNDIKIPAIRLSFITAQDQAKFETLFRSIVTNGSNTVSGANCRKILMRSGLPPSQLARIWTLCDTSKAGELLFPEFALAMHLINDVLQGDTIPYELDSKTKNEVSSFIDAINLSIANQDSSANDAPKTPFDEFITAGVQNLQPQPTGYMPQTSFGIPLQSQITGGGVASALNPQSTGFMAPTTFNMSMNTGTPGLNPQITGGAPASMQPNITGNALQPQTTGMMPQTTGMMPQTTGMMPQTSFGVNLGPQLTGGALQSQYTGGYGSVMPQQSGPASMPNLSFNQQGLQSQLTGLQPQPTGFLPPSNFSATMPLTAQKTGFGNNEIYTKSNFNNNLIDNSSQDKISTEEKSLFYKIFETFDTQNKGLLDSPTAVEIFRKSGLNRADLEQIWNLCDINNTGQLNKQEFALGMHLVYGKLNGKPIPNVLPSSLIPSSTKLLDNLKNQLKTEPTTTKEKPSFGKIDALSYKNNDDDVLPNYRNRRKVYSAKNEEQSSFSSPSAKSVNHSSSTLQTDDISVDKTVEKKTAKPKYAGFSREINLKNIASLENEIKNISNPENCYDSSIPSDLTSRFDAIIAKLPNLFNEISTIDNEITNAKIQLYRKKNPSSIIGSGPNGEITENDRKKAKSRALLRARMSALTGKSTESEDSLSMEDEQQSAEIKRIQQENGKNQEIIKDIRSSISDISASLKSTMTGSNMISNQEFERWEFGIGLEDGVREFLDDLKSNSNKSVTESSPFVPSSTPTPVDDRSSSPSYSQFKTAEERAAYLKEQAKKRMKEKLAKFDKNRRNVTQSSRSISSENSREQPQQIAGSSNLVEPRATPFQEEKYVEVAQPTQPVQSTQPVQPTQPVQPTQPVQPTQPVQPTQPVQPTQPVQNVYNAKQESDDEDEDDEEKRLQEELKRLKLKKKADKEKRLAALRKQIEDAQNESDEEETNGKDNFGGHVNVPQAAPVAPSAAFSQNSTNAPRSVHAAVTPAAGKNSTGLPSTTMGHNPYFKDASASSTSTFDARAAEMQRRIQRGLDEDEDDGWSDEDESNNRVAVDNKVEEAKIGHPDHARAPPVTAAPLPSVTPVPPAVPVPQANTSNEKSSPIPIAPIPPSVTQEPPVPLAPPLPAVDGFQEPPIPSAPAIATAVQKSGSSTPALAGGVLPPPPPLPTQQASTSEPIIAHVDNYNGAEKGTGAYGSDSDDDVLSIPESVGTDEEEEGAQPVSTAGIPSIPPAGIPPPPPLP

Gal4 DBD-Pan1^792–948 = target: T2, Gal4 DBD-Pan1^792–948 (yeast, UniProt P32521 792-948); test: two-hybrid
T2 sequence (looked up): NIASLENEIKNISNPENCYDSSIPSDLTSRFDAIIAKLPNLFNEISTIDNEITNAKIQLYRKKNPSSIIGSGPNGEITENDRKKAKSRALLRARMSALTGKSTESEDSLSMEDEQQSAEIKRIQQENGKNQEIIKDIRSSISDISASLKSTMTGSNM

Gal4 DBD-Pan1^687–846 = target: T3, Gal4 DBD-Pan1^687–846 (yeast, UniProt P32521 687-846); test: two-hybrid
T3 sequence (looked up): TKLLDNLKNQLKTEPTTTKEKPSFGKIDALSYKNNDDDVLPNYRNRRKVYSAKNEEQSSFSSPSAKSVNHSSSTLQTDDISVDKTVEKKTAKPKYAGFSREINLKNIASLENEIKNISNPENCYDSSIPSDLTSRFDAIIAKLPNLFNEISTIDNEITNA

Gal4 DBD-Pan1^687–1190 = target: T4, Gal4 DBD-Pan1^687–1190 (yeast, UniProt P32521 687-1190); test: two-hybrid
T4 sequence (looked up): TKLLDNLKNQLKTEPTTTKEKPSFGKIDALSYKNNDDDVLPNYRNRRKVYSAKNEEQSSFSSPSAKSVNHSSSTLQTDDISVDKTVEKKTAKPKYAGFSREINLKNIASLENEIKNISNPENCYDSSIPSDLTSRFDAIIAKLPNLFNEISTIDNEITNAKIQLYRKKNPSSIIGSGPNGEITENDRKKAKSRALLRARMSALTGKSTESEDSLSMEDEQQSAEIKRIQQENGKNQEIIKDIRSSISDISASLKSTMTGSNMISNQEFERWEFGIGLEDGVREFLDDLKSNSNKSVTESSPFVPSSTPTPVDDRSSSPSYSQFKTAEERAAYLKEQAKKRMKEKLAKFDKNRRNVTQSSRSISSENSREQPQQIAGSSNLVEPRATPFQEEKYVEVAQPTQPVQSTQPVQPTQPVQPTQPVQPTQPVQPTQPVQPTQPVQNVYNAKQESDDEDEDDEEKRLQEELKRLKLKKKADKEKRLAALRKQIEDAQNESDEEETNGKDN

stoichiometry N [1]: 1
B1: End3 (recombinantly purified, unpublished data) (natural protein, yeast, UniProt P39013 1-349, looked up)
chain: MPKLEQFEIKKYWQIFSGLKPIENKVNHDQVLPILYNSKLDSSVLNKIWFLADIDDDDNLDFEEFVICMRLIFDMVNKNISSVPDELPDWLIPGSKVNLIKERKKRKQIENADLPPKKEIKVDWYMSPDDLNQYEKIYNSCAKLTDGTITFNELSTKLSTKFFNISKTDLNKVWSLINPQNLPSIDRDPTFYFIHCLRQRNDLGAEIPASLPNSLAEVCNKKQLSYDLRSSQPPTKRKEEANEVDNLRDNGQNSSSDSSGSNVLSNEDSIKQKYASLTDDQVANMREQLEGLLNYKKSEKTQGGSKLSKRINIRSITDDLDNIEQQVEVLENYLNNKRHELQALQAEIN

Miller Units (Gal4 DBD-Pan1^792–948): 99.7 Miller Units
Miller Units (Gal4 DBD-Pan1^687–846): 80.1 Miller Units
Miller Units (Gal4 DBD-Pan1^687–1190): 412 Miller Units
B2: Gal4 AD-End3^176–349 (domain or fragment, yeast, UniProt P39013 176-349, looked up)
chain: LINPQNLPSIDRDPTFYFIHCLRQRNDLGAEIPASLPNSLAEVCNKKQLSYDLRSSQPPTKRKEEANEVDNLRDNGQNSSSDSSGSNVLSNEDSIKQKYASLTDDQVANMREQLEGLLNYKKSEKTQGGSKLSKRINIRSITDDLDNIEQQVEVLENYLNNKRHELQALQAEIN
